Laboratory results reported in paper PMC10705692.
Numbering of substitutions follows the chain as printed. Names may count otherwise.

Tests used:
[1] = whole-cell patch clamp, HEK293T, 10 s domoate; details: glycan lost; control: GluK2 WT
[2] = paired-pulse whole-cell patch clamp, tau recovery; details: glycan lost; control: GluK2 WT
[3] = whole-cell patch clamp, HEK293T, tau desensitization; details: glycan lost
[4] = whole-cell patch clamp, 3 ms glutamate, tau deactivation; details: glycan lost

B1: GluK2 KAR: T277A (protein)
parent chain: MKIISPVLSNLVFSRSIKVLLCLLWIGYSQGTTHVLRFGGIFEYVESGPMGAEELAFRFAVNTINRNRTLLPNTTLTYDTQKINLYDSFEASKKACDQLSLGVAAIFGPSHSSSANAVQSICNALGVPHIQTRWKHQVSDNKDSFYVSLYPDFSSLSRAILDLVQFFKWKTVTVVYDDSTGLIRLQELIKAPSRYNLRLKIRQLPADTKDAKPLLKEMKRGKEFHVIFDCSHEMAAGILKQALAMGMMTEYYHYIFTTLDLFALDVEPYRYSGVNMTGFRILNTENTQVSSIIEKWSMERLQAPPKPDSGLLDGFMTTDAALMYDAVHVVSVAVQQFPQMTVSSLQCNRHKPWRFGTRFMSLIKEAHWEGLTGRITFNKTNGLRTDFDLDVISLKEEGLEKIGTWDPASGLNMTESQKGKPANITDSLSNRSLIVTTILEEPYVLFKKSDKPLYGNDRFEGYCIDLLRELSTILGFTYEIRLVEDGKYGAQDDVNGQWNGMVRELIDHKADLAVAPLAITYVREKVIDFSKPFMTLGISILYRKPNGTNPGVFSFLNPLSPDIWMYILLAYLGVSCVLFVIARFSPYEWYNPHPCNPDSDVVENNFTLLNSFWFGVGALMQQGSELMPKALSTRIVGGIWWFFTLIIISSYTANLAAFLTVERMESPIDSADDLAKQTKIEYGAVEDGATMTFFKKSKISTYDKMWAFMSSRRQSVLVKSNEEGIQRVLTSDYAFLMESTTIEFVTQRNCNLTQIGGLIDSKGYGVGTPMGSPYRDKITIAILQLQEEGKLHMMKEKWWRGNGCPEEESKEASALGVQNIGGIFIVLAAGLVLSVFVAVGEFLYKSKKNAQLEKRSFCSAMVEELRMSLKCQRRLKHKPQAPVIVKTEEVINMHTFNDRRLPGKETMA
increases: other: desensitization rate [1] | other: rate of recovery from desensitization [2] | other: desensitization rate ([3]; control: GluK2 WT) | other: deactivation rate ([4]; control: GluK2 WT)

B2: GluK2 KAR: T277A/R775A (protein)
parent chain: B1 parent chain with R775A
increases: other: desensitization rate ([3]; control: R775A) | other: deactivation rate ([4]; control: R775A)
